Experimental data reported in patent publication US20160362487A1 (Regeneron, published 2016).
Numbering of substitutions follows the chain as printed. Numbers in names are those of the source.

T1: human IL-33 (R&D Systems, #3625-IL-010/CF) (human, UniProt O95760 112-270)
T1 construct: Commercial recombinant protein; also called hIL-33; interleukin-33
T1 sequence (looked up): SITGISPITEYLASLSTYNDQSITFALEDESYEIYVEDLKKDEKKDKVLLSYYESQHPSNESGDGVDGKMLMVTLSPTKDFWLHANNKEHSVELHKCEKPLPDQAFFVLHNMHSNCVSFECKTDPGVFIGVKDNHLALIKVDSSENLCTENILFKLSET

T2: cynomolgus monkey IL-33 expressed with a C-terminal hexahistidine tag (cynomolgus monkey)
T2 construct: also called MfIL-33-6His; Mf-IL-33-6His
T2 chain: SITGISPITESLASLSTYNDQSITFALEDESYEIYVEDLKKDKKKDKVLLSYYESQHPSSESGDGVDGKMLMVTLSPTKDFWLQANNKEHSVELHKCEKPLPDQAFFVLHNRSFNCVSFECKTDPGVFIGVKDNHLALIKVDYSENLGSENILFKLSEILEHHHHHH

B1: H1M9566N (antibody, mouse IgG1, V domains shown)
VH: EVQLLESGGDLVQPGGSLRLSCAASGFTFSSYAMSWVRQAPGKGLEWVSVISGSGSSTDYADSVKGRFTISRDNSRDTLHLQMNSLRAEDTAVYYCAKTFYYFYGLDVWGQGTTVTVSS
VL: DIQMTQSPSSLSASLRDRVTITCRASQGISNYLAWYQQKPGKVPKVLIYAASTLQSGVPSRFSGSGSGTVFTLTISSLQTEDVATYYCQKYSSAPFTFGPGTKVDIK
notes: Human variable domains, mouse IgG1 Fc (H1M)
B2: H4H9629P (antibody, human IgG4, V domains shown)
VH: EVQLVESGGGLVQPGGSLRLSCAASGFTFRSFAMSWVRQAPGKGLELVSDLRTSGGSTYYADSVKGRLTISRDNSKNTLYLQMNSLRAEDTAVYYCAKSHYSTSWFGGFDYWGQGTLVTVSS
VL: DIQMTQSPSSVSASVGDRVTITCRASQGFSSWLAWYQQKPGKAPKLLIYAASSLQSGVPSRFSGSGSGTDFTLTITNLQPEDFATYYCQQANSFPLTFGGGTKVEIK
notes: Human IgG4 Fc (H4H)
B3: H4H9676P (antibody, human IgG4, V domains shown)
VH: EVQLVESGGGLVQPGGSLRLSCSASGFTFSSYAMNWVRQAPGKGLEWVTAISGSGGGTYYADSVKGRFTISRDNSKNSLFLQLNSLRAEDTAVYYCAKQTYTSSWYGGFDIWGQGTMVTVSS
VL: B2 VL with K39I, S53R, S63R, T76S, N77S
notes: Human IgG4 Fc (H4H)
B4: H4H9672P (antibody, human IgG4, V domains shown)
VH: EVQLVESGGGLVQPGGSLRLSCAASGFTLRSYVMYWVRQGPGKGLEGVSGISGSSGGTYYTDSVKGRFTISRDNSKNTLFLQMNSLRAEDTAVYFCARSVYSTTWYGGFQHWGQGTLVTVSS
VL: B2 VL with A13V, G28V, F29I, Q38L, T76S, N77G, T85V, A91T
notes: Human IgG4 Fc (H4H)
B5: H4H9666P (antibody, human IgG4, V domains shown)
VH: QVQLVQSGAEVKKPGASVKVSCKASGYTFTSYGISWVRQAPGQGLEWMGWIRAYNGYTNYAQKFQGRVTMTTDTSTNTAYMELRTLNSDDTAVYYCARDRYSGSFHGNFDYWGQGTLVTVSS
VL: B2 VL with F29I, S30F, L46V, S53N, Q55E, T76S, N77S, F94L
notes: Human IgG4 Fc (H4H)
B6: H4H9633P (antibody, human IgG4, V domains shown)
VH: EVQLVESGGGLVQPGGSLRLSCAASGFTFSSYVMSWVRQAPGKGLEWVSSISGNGGSTNYADSVKGRFTISRDNSKNTLFLEMNSLRAEDTAVYYCAKSLGTTTTFLGFDYWGQGTLVTVSS
VL: B2 VL with F29I, D70Y, T76S, N77S
notes: Human IgG4 Fc (H4H)
B7: H1M9568N (antibody, mouse IgG1, V domains shown)
VH: QVLLVQSGAEVKKPGATVKVSCKASGSTFTGYYMHWVRQAPGQGLEWMGWINPNNGGTNYAQKFQGRVTMTRDTSISTAYMELSRLRSDDTAVYYCARELRYNWKSWGQGTLVTVSS
VL: EIVLTQSPGTLSLSPGERVTLSCRASQSVGRPYLAWYQQIPGQAPRLLIYGASSRATDIPDRFSGNGSGTDFTLTISRLEPEDFAVYYCQQYDNSPYTFGQGTRLEIK
notes: as for B1
B8: H4H9640P (antibody, human IgG4, V domains shown)
VH: QVQLQESGPGLVKPSETLSLTCTVSGGSISSYYWSWIRQPPGKGLELIGYIYYSGSTNYNPSLKSRVTISVDTSKNHFSLKLSSVTAADTAVYYCARSQYTSSWYGSFDIWGQGTMVTVSS
VL: DIQMTQSPSSVSASVGDRVTITCRASQGISTWLAWFQQKPGKAPKLLIYAASTLQGGVPSRFSGSGSGPEFTLTISSLQPEDFATYYCQQANSFPWTFGQGTKVEIK
notes: Human IgG4 Fc (H4H)
B9: H1M9565N (antibody, mouse IgG1, V domains shown)
VH: QVTLKESGPVLVKPTESLTLTCSVSGFSLSNVRMGVSWIRQSPGKALEWLAHIFSNDEKSYTTSLKTRLTISKDTSRSQVVLTMTDMDPGDTATYYCARIRNLAFNYWGQGTLVTVSS
VL: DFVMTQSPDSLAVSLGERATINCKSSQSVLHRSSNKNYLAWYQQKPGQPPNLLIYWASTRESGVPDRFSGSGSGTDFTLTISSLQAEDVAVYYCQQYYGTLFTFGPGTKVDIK
notes: as for B1

biological target: T1, human IL-33 (R&D Systems, …); test: SPR 37C, pH6.0 chase, mAb captured
Protocol: (§1) Equilibrium dissociation constants (KD values) for IL-33 binding to purified anti-IL-33 monoclonal antibodies were determined using a real-time surface plasmon resonance biosensor using a Biacore 4000 instrument. The Biacore sensor surface was first derivatized by amine coupling with either a polyclonal rabbit anti-mouse antibody (GE, # BR-1008-38) or with a monoclonal mouse anti-human Fc antibody (GE, # BR-1008-39) to capture anti-IL-33 monoclonal antibodies expressed with mouse or with human IgG4 constant regions, respectively. All Biacore binding studies were performed in 0.01M ADA pH 7.4, 0.15M NaCl, 3 mM EDTA, and 0.05% v/v Surfactant Tween-20 (ABS-ET running buffer). […] Association of either hIL-33 or MfIL-33-6His to the captured monoclonal antibody was monitored for 4 minutes and their dissociation in ABS-ET running buffer was monitored for 10 minutes. The effect of reduced pH on the binding of each anti-IL-33 antibody to either hIL-33 or MfIL-33-6His was studied using an in-line pH chase assay format in 0.01M ADA pH 6.0, 0.15M NaCl, 3 mM EDTA, and 0.05% v/v Surfactant Tween-20 (ABS-ET pH6 buffer). To achieve this, association of either hIL-33 or MfIL-33-6His to the captured monoclonal antibody was monitored for 4 minutes in ABS-ET running buffer. Following a 30 second dissociation of either hIL-33 or MfIL-33-6His in ABS-ET running buffer, ABS-ET pH6 buffer was injected for 3 minutes, and the analyte dissociation under the low-pH conditions was measured. All the binding kinetic experiments were performed at both 25° C. and 37° C. Kinetic association (kₐ) and dissociation (kd) constants were determined by fitting the real-time sensorgrams to a 1:1 binding model using Scrubber 2.0c curve fitting software. Binding dissociation equilibrium constants (KD) and dissociative half-lives (t½) were calculated from the kinetic rate constants as: […]

| koff | t½ | t½ Ratio (pH 7.4/pH 6.0) | Binder |
| --- | --- | --- | --- |
| 0.000967 s⁻¹ | 12 min | 3.4 | B1 |
| 0.00582 s⁻¹ | 2 min | 9 | B2 |
| 0.00524 s⁻¹ | 2 min | 4.1 | B3 |
| 0.00541 s⁻¹ | 2 min | 4.7 | B4 |
| 0.0068 s⁻¹ | 2 min | 8.8 | B5 |
| 0.0024 s⁻¹ | 5 min | 3.5 | B6 |
| 0.0011 s⁻¹ | 10 min | 1.1 | B7 |
| 0.00265 s⁻¹ | 4 min | 4.6 | B8 |

Biological target: T2, cynomolgus monkey IL-33 expressed with …
Test: SPR 37C, pH6.0 chase, mAb captured
Protocol: as §1

| koff | t½ | t½ Ratio (pH 7.4/pH 6.0) | Binder |
| --- | --- | --- | --- |
| 0.00115 s⁻¹ | 10 min | 2.9 | B1 |
| 0.000228 s⁻¹ | 51 min | 1.1 | B9 |
| 0.00224 s⁻¹ | 5 min | 1.3 | B7 |
| 0.00226 s⁻¹ | 5 min | 0.5 | B8 |

Biological target: T2, cynomolgus monkey IL-33 expressed with …
Test: BLI; mAb-1 on captured MfIL-33-6His
Protocol: Binding competition between a panel of different anti-IL-33 monoclonal antibodies was determined using a real time, label-free bio-layer interferometry assay on an Octet® HTX biosensor (ForteBio, A Division of Pall Life Sciences). The experiment was performed at 25° C. using a buffer of 0.01M HEPES pH7.4, 0.15M NaCl, 3 mM EDTA, 0.05% v/v Surfactant Tween-20, and 0.1 mg/ml BSA (HBS-ET kinetics buffer) with the plate shaking at a speed of 1000 rpm. […] The antigen-captured biosensors were then saturated with a first anti-IL-33 monoclonal antibody (subsequently referred to as mAb-1) by immersion into wells containing 50 μg/mL solution of mAb-1 for 5 minutes. The biosensors were then dipped into wells containing a 50 μg/mL solution of a second anti-IL-33 monoclonal antibody (subsequently referred to as mAb-2) for 4 minutes. The biosensors were washed in HBS-ET kinetics buffer in between every step of the experiment. The real-time binding response was monitored during the experiment, and the maximum binding response for each binding step was recorded. The response of mAb-2 binding to MfIL-33-6His pre-complexed with mAb-1 was measured, and competitive/non-competitive behavior of different anti-IL-33 monoclonal antibodies with respect to each other was determined.

| mAb-1 Binding (nm) | Binder |
| --- | --- |
| 0.58 nm | B1 |
| 0.46 nm | B9 |
| 0.72 nm | B2 |
| 0.62 nm | B3 |
| 0.56 nm | B4 |
| 0.57 nm | B5 |
| 0.64 nm | B6 |
| 0.5 nm | B7 |
| 0.61 nm | B8 |

biological target: T1, human IL-33 (R&D Systems, …); test: BLI; hIL-33 pre-mixed with mAb-2 Isotype control 1
Protocol: (§2) Binding competition between a panel of different anti-IL-33 monoclonal antibodies was determined using a real time, label-free bio-layer interferometry assay on an Octet® HTX biosensor (ForteBio, A Division of Pall Life Sciences). The experiment was performed at 25° C. using a buffer of 0.01M HEPES pH7.4, 0.15M NaCl, 0.05% v/v Surfactant Tween-20, and 0.1 mg/ml BSA (HBS-ET kinetics buffer) with the plate shaking at a speed of 1000 rpm. To assess whether two antibodies were able to compete with one another for binding to human IL-33, a pre-mix assay format was used where 100 nM of human IL-33 (R&D Systems; #3625-IL-010/CF) was pre-mixed with 500 nM of different anti-IL-33 monoclonal antibodies (subsequently referred to as mAb-2) for at least 2 hours prior to running the binding competition assay. […] Following the capture step, unoccupied anti-mouse Fc polyclonal antibody and anti-human Fc polyclonal antibody on the Octet biosensors were saturated by submerging them for 4 minutes into wells containing 200 μg/mL of a non-specific monoclonal antibody with a mouse Fc or with a human Fc, respectively. Finally, the Octet biosensors were immersed for 4 minutes into wells containing the pre-mixed samples of 100 nM of human IL-33 and 500 nM of mAb-2. At the end of each cycle, the non-covalently captured anti-IL-33 antibodies along with the bound pre-complex of human IL-33 and mAb-2 were removed from the biosensors using three alternate 20 second immersions into 10 mM HCl followed by submerging into HBS-ET kinetics buffer. The biosensors were washed in HBS-ET kinetics buffer in between every step of the experiment. The real-time binding response was monitored during the binding events, and the binding response (in units of nm) at the end of every step was recorded.

| mAb-1 Binding to the Pre-complex of mAb-2 & hIL-33 | Binder |
| --- | --- |
| 0.06 nm | B1 |
| -0.01 nm | B9 |
| 0.22 nm | B2 |
| 0.11 nm | B3 |
| 0.16 nm | B4 |
| 0.15 nm | B5 |
| 0.21 nm | B6 |
| 0.05 nm | B7 |
| 0.18 nm | B8 |

biological target: T1, human IL-33 (R&D Systems, …); test: BLI; hIL-33 pre-mixed with mAb-2 Isotype control 2
Protocol: as §2

| mAb-1 Binding to the Pre-complex of mAb-2 & hIL-33 | Binder |
| --- | --- |
| 0.1 nm | B1 |
| 0.03 nm | B9 |
| 0.14 nm | B2 |
| 0.1 nm | B3 |
| 0.08 nm | B4 |
| 0.08 nm | B5 |
| 0.15 nm | B6 |
| 0.1 nm | B7 |
| 0.1 nm | B8 |
